The supplement of paper PMC9170038

Tested on: MS2 coat protein
Test: apparent KD of MS2 coat protein; higher = weaker reporter binding
Details: Eterna round: R107; input ligand: theophylline 20 uM
Method in brief: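 Apparent KD per design is the median of normalised cluster binding-curve fits. Designed RNA switches transcribed on-chip from Illumina sequencing clusters were titrated with SNAP-549-labelled MS2 coat protein in twofold steps from 0.7 or 1.5 nM to 3 µM, with 0.8–1.5 h down to 10–20 min per step. Buffer: 100 mM Tris-HCl pH 7.5, 80 mM KCl, 4 mM MgCl2, without or with constant ligand.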

First: CGAUAUGAGGUCGAUACCAGCAGCUUCAAGCACAUGAGGAUCACCCAUGUCCAUUUUACUUGCCCUUGGCAGCGACUUUGGAAAC [theeternabot_sameState_MS2_Theo_B_23]
Second: GCGGACAUGAGGAUCACCCAUGUAAAUCCUCGAGGACCGGUACGGCCGCCACUCGAACGAGUGGCGCGCGAGCGCGCGCUCGCGC [aBa]
The “apparent KD of MS2 coat protein” value of the first is 1.7-fold lower: 34.9 nM for the first, 60.3 nM for the second.

“GAAGAUCCGUAAGAUACCAGUGCAGAUCGGCACAUGAGGAUCACCCAUGUAAAGCAAGAACACCCUUGGCAGCUUUCGUAACAAC [theeternabot_sameState_MS2_Theo_B_15]” and “UUAUUUAACGGAAGGAGCGCGGAAUAAUAAGUGGGUAAACAUGAGGAUCACCCAUGUAAACCGCAGGUAGGUCGCCGAUAUUUAU [AstrosEXyARgB#3]” are within 1.5-fold of each other in “apparent KD of MS2 coat protein” value: 64.8 nM for the first, 88.9 nM for the second.

Going from “ACUAGUUGUGCAGAUACCAGAUAUGAGGAUCACCCAUAUUUGGGAUGUUCGCAUCUUCCUGUCCCUUGGCAGCUGUACAUCUAGA [Omei Theo B Exc v7]” to “GUCUCAGACCGAGAUACCAGCUGGGUUUCCCACAUGAGGAUCACCCAUGUAUUCAGAUUAAGCCCUUGGCAGCUCAUCUAGGUCC [theeternabot_sameState_MS2_Theo_B_44]”, the “apparent KD of MS2 coat protein” value falls from 86.7 nM to 20.6 nM (4.2-fold).

First: CUCUGAGUGAGAAAUCACUCAGAGGCGGAUACCAGCGAGGUCCAUCGCCCUUGGCAGCCGAACAUGAGGAUCACCCAUGUCGGUA [#1 Same State - Theophylline A Attempt #21 (HarryS)]
Second: AUAAAAGGGUUAUAUAGAUUUAGGUCCAGUCGAGGACCGGUACGGCCGCCACUCGUACUGAAAUACAUGAGGAUCACCCAUGUUA [JR_SSTryptoA_Sub006]
The “apparent KD of MS2 coat protein” value of the first is 1.8-fold lower: 14 nM for the first, 25.8 nM for the second.

Going from “GGGUGGUAGGCGGCCGCCACUGAUUUUCAUUCCUAGAUGACAUGAGGAUCACCCAUGUUUAUGGGCAGGACCGGGCCUGCUGUGG [aaaV]” to “CACAUGAGGAUCACCCAUGUCUGAACUGAAGGAGCGCUAAAUAAGGCAGGUAGGUCGCGGAAUCUUGUGUGCAUAUGCACACGGG [9.T]”, the “apparent KD of MS2 coat protein” value falls from 64.1 nM to 28.5 nM (2.2-fold).

Going from “UGUACAGACAUCGAAUUCCUAUGUGCUGAAGGAGCGUCGUUGACGACAGGUAGGUCGCAGUUAACAUGAGGAUCACCCAUGUACA [Arg A Ex t5]” to “CGUAUUGGAAACAGUACGAGUGAUCCGGUCCGAGGACCGGUACGGCCGCCACUCGAAAUUAAUAAACAUGAGGAUCACCCAUGUA [Ex Tryptophan A 10]”, the “apparent KD of MS2 coat protein” value falls from 82.3 nM to 19.6 nM (4.2-fold).

First: UCCACAUGAGGAUCACCCAUGUGCCAUGAUACCAGACAUGAAAAUGUCCCUUGGCAGCAUGAGUGAGGCAUCCGAAAGGAUGCCU [Chrlice]
Second: UGCGACAAGUGAAUACUUUGUUCUAGAGAUACCAGUUCCCGAGUGAACCCUUGGCAGCUCCCAACAUGAGGAUCACCCAUGUAUU [theeternabot_exclusion_MS2_Theo_A_24]
The “apparent KD of MS2 coat protein” value of the first is 13-fold higher: 260 nM for the first, 20 nM for the second.

“AAGGGAGAGUCAGAUACCAGAGUAAGAUGGCAUGGUAAUUACAUGAGGAUCACCCAUGUAUUCCCUUGGCAGCUGACCCUACGUU [Exclusion Theophylline B GF 19]” and “GGGCCUAUCUGAAGGAGCGACAUGAGGAUCACCCAUGUCUCCCGUUAUGGGAGUUCUUUAGGUCAGGUAGGUCGCAGGUAGGGCC [#1 Exclusion - Arginine B Attempt #5 (Inspired by Omei)]” are within 1.5-fold of each other in “apparent KD of MS2 coat protein” value: 16.7 nM for the first, 19 nM for the second.

Compared with “CCAGCCCUUCUAGAUACCAGCUUUCAAUAUAAGACAACUCACAUGAGGAUCACCCAUGUUAGCCCUUGGCAGCUAAGAUCCACAA [theeternabot_exclusion_MS2_Theo_B_32]”, “GGCCAUGGAAACAUGGCGGCGGCGUAUGCGCGAGGACCGGUACGGCCGCCACUCGGGCGACAUGAGGAUCACCCAUGUUCCUCAU [ETA NP+V+V2 #25]” is 3.6-fold higher in “apparent KD of MS2 coat protein” value: 67 nM for the first, 243 nM for the second.

With “CACAUGAGGAUCACCCAUGUCUGAACUGAAGGAGCGCUAAACAAGGCAGGUAGGUCGCGGAAUCCCGUGUGCAUAUGCACACGGG [9.Z]” the “apparent KD of MS2 coat protein” value was 24.1 nM.

Same assay, conditions: Eterna round: R107; input ligand: theophylline 2 mM

Compared with “UAACAUGAGGAUCACCCAUGUUUGAAGGAACGAGGACCGGUACGGCCGCCACUCGACGAGUGGAUGAGAAGUGGGAUUGUGUGCU [Same State Trp A GF8]”, “GGGUACAUCGCGGCCGCCACUUGUGUAAAUACAUGAGGAUCACCCAUGUCGAUGGAGACAUCGGAGAGGACCGGGUGAUGUACCG” is 5.6-fold higher in “apparent KD of MS2 coat protein” value: 17.3 nM for the first, 96.5 nM for the second.

Going from “GCGAUGGAGCGAAGGAGCGUGCUAGUACAUGAGGAUCACCCAUGUGAGUCGCAGCGCUAAGCACAGGUAGGUCGCGCUCCAUCGC [EAB NP+V+V2 #12]” to “GGUAUAUAGGCGGCCGCCACUGAUUUUCAUAUAUAUAUAACAUGAGGAUCACCCAUGUAGAUAUACAGGACCGGGCCUAUAUAUU [aaaC]”, the “apparent KD of MS2 coat protein” value falls from 49.7 nM to 16.4 nM (3-fold).

Compared with “AAUGUAUGGCACAUGAGGAUCACCCAUGUGCGAGGACCGGUACGGCCGCCACUCGGUCGUGGGUUCUUAUUACUAUACAUUAAUG [XTryp A #14]”, “CACGGCCAUGAGGAUCACCCAUGGAAUAAUCGAGGACCGGUACGGCCGCCACUCGUGGACCGUGACCUGUACGAAAAGUGCAGGA” is 2.3-fold higher in “apparent KD of MS2 coat protein” value: 11.6 nM for the first, 26.9 nM for the second.

“AACAUGAGGAUCACCCAUGUCCCAUGUGAACGAGGACCGGUACGGCCGCCACUCGAAUAAGGCGGCACAUGAGGAUCACCCACAU [AstrosSSTry#1]” and “CCUAUGCAGUCGGCCGCCACUGAACAUGAGGAUCACCCAUGUAAUUAAAAUUAAGAUCCUGAAAUCAGGACCGGGACUGUAUAGG [Ex Tryptophan B 4]” are within 1.5-fold of each other in “apparent KD of MS2 coat protein” value: 206 nM for the first, 140 nM for the second.

Going from “GGGACACCGGGAAGGAGCGCAUCCAAACCACACAUGAGGAUCACCCAUGUAUAAAUAUGCAUGCAGGUAGGUCGCCCGAUGUCUC [Anrearradi]” to “AAAUAAAUACAUGAGGAUCACCCAUGUGAAGGAGCGGCCGUUAGGCCAGGUAGGUCGCGCAUGAAUAACUCCGUGCAAAAGCACA [MAT - Exclusion Arginine A - Mod of Eli - D18]”, the “apparent KD of MS2 coat protein” value falls from 120 nM to 13.3 nM (9-fold).

“AAUCGUAAGGCGGCCGCCACUACACAUGAGGAUCACCCAUGUCUCGCAGGCUUGCGUUGGGUUAGUAGGACCGGGCCAGUAAUAA [Exclusion - Tryptophan B (Freestyle 15)]” and “UGGGUUGGACCAGGAAAUGGUCUGACUCACCGAGGACCGGUACGGCCGCCACUCGUAGGUACAUGAGGAUCACCCAUGUCGGUGG [#1 Same State - Tryptophan A Attempt #11 (HarryS)]” are within 1.5-fold of each other in “apparent KD of MS2 coat protein” value: 37 nM for the first, 36.2 nM for the second.

“AGACGAGCAAUCAACGGGCGUUUCGUGACGCGAGGACCGGUACGGCCGCCACUCGAGUCUGGACAUGAGGAUCACCCAUGUUAUG [theeternabot_exclusion_MS2_Trp_A_46]” and “GGGCGAGUGGAGCGGCGUGCUCCGCUCCGUCGAGGACCGGUACGGCCGCCACUCGACAUGAGGAUCACCCAUGUGCGAGCUCGCG [#1 Exclusion - Tryptophan A Attempt #13 (HarryS)]” are within 1.5-fold of each other in “apparent KD of MS2 coat protein” value: 41 nM for the first, 58.6 nM for the second.

First: GCGGACAUGAGGAUCACCCAUGUAAAUCCUCGAGGACCGGUACGGCCGCCACUCGAACGAGUGGCGCGCGAGCGCGCGCUCGCGC [aBa]
Second: UUAUUUAACGGAAGGAGCGCGGAAUAAUAAGUGGGUAAACAUGAGGAUCACCCAUGUAAACCGCAGGUAGGUCGCCGAUAUUUAU [AstrosEXyARgB#3]
The “apparent KD of MS2 coat protein” value of the first is 2.7-fold lower: 36.4 nM for the first, 98.1 nM for the second.

Compared with “ACUAGUUGUGCAGAUACCAGAUAUGAGGAUCACCCAUAUUUGGGAUGUUCGCAUCUUCCUGUCCCUUGGCAGCUGUACAUCUAGA [Omei Theo B Exc v7]”, “CUCUGAGUGAGAAAUCACUCAGAGGCGGAUACCAGCGAGGUCCAUCGCCCUUGGCAGCCGAACAUGAGGAUCACCCAUGUCGGUA [#1 Same State - Theophylline A Attempt #21 (HarryS)]” is 7.4-fold lower in “apparent KD of MS2 coat protein” value: 107 nM for the first, 14.5 nM for the second.

First: AUAAAAGGGUUAUAUAGAUUUAGGUCCAGUCGAGGACCGGUACGGCCGCCACUCGUACUGAAAUACAUGAGGAUCACCCAUGUUA [JR_SSTryptoA_Sub006]
Second: GGGUGGUAGGCGGCCGCCACUGAUUUUCAUUCCUAGAUGACAUGAGGAUCACCCAUGUUUAUGGGCAGGACCGGGCCUGCUGUGG [aaaV]
The “apparent KD of MS2 coat protein” value of the first is 3.5-fold lower: 22.9 nM for the first, 79.9 nM for the second.
